Experimental data: patent publication US20200316217A1 (CHILDREN S MEDICAL CENTER, published 2020)
Blank lines part the entries; values can stand above or below the binder they belong to. Ends that are not written are not given here.

Assays:
rat PTHR1 [1] = molecular target: T1, rat PTHR1 (rat, UniProt P25961 27-591); experiment: cell-based or functional assay
T1 sequence (looked up): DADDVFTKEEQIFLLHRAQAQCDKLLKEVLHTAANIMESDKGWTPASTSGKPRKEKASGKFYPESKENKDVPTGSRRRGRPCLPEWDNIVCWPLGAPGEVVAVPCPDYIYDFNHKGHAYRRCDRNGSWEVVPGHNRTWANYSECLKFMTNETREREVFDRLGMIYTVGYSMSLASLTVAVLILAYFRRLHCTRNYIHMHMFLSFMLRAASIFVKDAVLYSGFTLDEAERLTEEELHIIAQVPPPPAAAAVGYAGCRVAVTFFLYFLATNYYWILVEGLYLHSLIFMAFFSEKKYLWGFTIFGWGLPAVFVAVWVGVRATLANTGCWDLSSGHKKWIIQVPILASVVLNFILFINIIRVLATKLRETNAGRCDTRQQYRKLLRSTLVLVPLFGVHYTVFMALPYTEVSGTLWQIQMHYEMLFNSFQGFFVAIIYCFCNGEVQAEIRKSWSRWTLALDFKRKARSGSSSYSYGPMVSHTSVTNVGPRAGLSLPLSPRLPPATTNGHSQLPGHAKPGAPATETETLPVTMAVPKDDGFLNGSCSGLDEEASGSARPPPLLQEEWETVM

PTHR1YFPΔECD [2] = molecular target: PTHR1YFPΔECD (human); experiment: cell-based or functional assay
PTHR1YFPΔECD [3] = molecular target: PTHR1YFPΔECD (human); experiment: cell-based or functional assay; remark: listed apart in the source
PTHR16E [4] = molecular target: T2, PTHR16E (human, UniProt Q03431 27-593); experiment: flow cytometry, AlexaFluor647-VHH titrated on HEK293 cells expressing the receptor (MFI)
T2 construct: Stably expressed on HEK293 cells; also called hPTHR16E
T2 chain: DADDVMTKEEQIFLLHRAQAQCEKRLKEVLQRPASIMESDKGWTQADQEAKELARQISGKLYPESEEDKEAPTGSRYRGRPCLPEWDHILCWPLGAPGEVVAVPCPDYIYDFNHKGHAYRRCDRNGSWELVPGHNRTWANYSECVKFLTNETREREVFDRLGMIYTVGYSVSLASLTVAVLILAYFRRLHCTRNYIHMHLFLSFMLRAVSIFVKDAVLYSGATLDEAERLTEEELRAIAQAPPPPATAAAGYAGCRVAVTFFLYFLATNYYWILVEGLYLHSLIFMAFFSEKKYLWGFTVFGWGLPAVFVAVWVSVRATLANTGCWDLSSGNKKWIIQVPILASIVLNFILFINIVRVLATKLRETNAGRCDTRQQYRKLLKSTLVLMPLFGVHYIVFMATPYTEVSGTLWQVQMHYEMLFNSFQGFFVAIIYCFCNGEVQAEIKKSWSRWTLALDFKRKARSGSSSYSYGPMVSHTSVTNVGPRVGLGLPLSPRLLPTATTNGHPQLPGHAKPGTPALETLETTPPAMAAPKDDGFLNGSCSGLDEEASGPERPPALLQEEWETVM
Description: (§1) Suspensions of cells in PBS were stained for 1 hour on ice in the presence of indicated concentrations of VHH probes functionalized with Alexafluor647. Cells were pelleted by centrifugation and washed with PBS prior to analysis by flow cytometry (BD Accuri C6). Gating was performed on forward scatter/side scatter profiles to analyze intact cells. Data was analyzed using FlowJo version 7.6. The median fluorescent intensity (MFI) of stained cells was used to generate VHH binding dose response curves (FIG. 20).
(§2) It was determined whether VHHs bound to their intended targets on live cells by flow cytometry (FIG. 14A). […] To estimate the affinity of the selected VHH for their targets flow cytometry was used to quantify binding.

human PTHR2 = molecular target: T3, human PTHR2 (human, UniProt P49190 25-550); experiment: flow cytometry, AlexaFluor647-VHH on stably transfected HEK293 cells
T3 construct: whole, on cells; Stably expressed on HEK293 cells; also called hPTHR2
Description: (§3) FIGS. 14A-14B: Binding of VHHs to HEK293 cell lines stably transfected with PTHRs. (FIG. 14A) Analysis of VHH binding to PTHR1, PTHR2 and variants by flow cytometry. HEK293 cell lines in suspension were incubated on ice with 100 nM VHH sortagged with Alexafluor647, pelleted by centrifugation, washed and analyzed. Data for PTHR1-GFP is found in FIGS. 17A to 17C. (FIG. 14B) Analysis of VHH binding with microscopy. […] Following staining, cells were washed and treated with fixative in preparation for image acquisition either immediately after staining (0 m) or following a 15-minute incubation in medium at room temperature (15 m).
as §1
(§4) It was determined whether VHHs bound to their intended targets on live cells by flow cytometry (FIG. 14A).

rat PTHR1 [5] = molecular target: T1, rat PTHR1; experiment: flow cytometry, AlexaFluor647-VHH titrated on HEK293 cells expressing the receptor (MFI); plateau estimated
Description: as §1, §2

PTHR16E [6] = molecular target: T2, PTHR16E; experiment: as above
Description: as §1, §2

Human PTHR1 WT = molecular target: T4, Human PTHR1 WT (human, UniProt Q03431 27-593); experiment: as above
T4 construct: Stably expressed on HEK293 cells (GP2.3); also called hPTHR1; wild-type PTHR1
T4 sequence: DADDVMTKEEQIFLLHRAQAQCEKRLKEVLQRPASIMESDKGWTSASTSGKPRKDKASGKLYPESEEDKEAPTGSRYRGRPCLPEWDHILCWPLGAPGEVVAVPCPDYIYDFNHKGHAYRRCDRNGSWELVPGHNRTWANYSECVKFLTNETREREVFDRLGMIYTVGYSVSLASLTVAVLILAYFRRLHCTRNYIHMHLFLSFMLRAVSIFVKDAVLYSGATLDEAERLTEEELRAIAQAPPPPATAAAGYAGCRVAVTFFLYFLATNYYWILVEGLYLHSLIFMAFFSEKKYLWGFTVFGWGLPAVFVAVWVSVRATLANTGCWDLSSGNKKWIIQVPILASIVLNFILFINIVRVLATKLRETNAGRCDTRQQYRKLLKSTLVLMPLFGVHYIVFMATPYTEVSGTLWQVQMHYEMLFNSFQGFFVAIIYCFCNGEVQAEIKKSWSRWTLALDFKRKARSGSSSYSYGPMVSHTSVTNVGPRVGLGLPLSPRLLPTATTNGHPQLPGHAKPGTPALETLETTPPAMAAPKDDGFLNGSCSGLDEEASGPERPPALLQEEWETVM
Description: as §1, §2

PTHR1GFP = molecular target: T5, PTHR1GFP (human, UniProt Q03431 95-593); experiment: as above
T5 construct: Human PTHR1 with the pH-sensitive GFP variant pHluorin2 inserted in the exon 2 portion; Stably expressed on HEK293 cells (GPG10); also called hPTHR1-GFP; hPTHR1GFP
Description: as §1, §2

PTHR1YFPΔECD [7] = molecular target: T6, PTHR1YFPΔECD (human); experiment: flow cytometry, AlexaFluor647-VHH on stably transfected HEK293 cells
T6 construct: PTHR1 in which YFP replaces the entire extracellular domain; Stably expressed on HEK293 cells (GD5); also called Human PTHR1-delNT-YFP; hPTHR1YFPΔECD
Description: as §3, §1, §4

T3 sequence (P49190 25-550): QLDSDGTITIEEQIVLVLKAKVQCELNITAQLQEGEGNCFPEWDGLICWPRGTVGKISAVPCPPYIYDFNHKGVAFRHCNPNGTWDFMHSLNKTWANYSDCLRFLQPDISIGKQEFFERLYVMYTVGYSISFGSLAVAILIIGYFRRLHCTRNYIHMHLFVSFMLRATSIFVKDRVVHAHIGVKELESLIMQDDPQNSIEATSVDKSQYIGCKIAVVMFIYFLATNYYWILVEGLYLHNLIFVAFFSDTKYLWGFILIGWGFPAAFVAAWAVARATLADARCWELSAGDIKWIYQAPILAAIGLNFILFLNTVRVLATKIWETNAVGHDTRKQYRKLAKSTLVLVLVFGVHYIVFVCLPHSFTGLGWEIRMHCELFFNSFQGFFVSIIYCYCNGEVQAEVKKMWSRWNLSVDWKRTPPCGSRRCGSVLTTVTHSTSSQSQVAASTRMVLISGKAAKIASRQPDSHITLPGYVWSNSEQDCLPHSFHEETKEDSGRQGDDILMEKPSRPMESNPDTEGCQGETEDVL

cAMP induction Max (normalized) (rat PTHR1 [1]): 1 normalized
cAMP induction EC50 (PTHR1YFPΔECD [2]): 689 nM
cAMP induction Max (normalized) (PTHR1YFPΔECD [2]): 1 normalized
Stimulation of receptor (cAMP), EC50 (PTHR1YFPΔECD [3]): 689 nM
Binder: SVSEIQLMHNLGKHLNSMERVEWLRKKLQDVHNF-NH2 [PTH(1-34)]

EC50 (PTHR16E [4]): < 10 nM
binding result (human PTHR2): no binding (tested: 100 nM)
B1: VHH6E (VHH)
VHH: QVQLQESGGGLVQPGGSLRLSCAASGFVFENSAMAWYRQAPGKERELIAVIGTTFIKLAESVKGRFTISRDNAKSTVYLQMNNLKPEDTAVYYCSKSGAYWGQGTQVTVSS
modifications: C-terminus sortagged to a GGG-probe (AlexaFluor647, tetramethylrhodamine or biotin-azide)
notes: It recognises a 14-mer from UBC6e; also called VHH05; VHH005

EC50 (rat PTHR1 [5]): 100 to 200 nM
EC50 (PTHR16E [6]): 100 to 200 nM
EC50 (Human PTHR1 WT): 100 to 200 nM
EC50 (PTHR1GFP): 100 to 200 nM
binding result (human PTHR2): no binding (tested: 100 nM)
binding result (PTHR1YFPΔECD [7]): no binding (tested: 100 nM)
B2: VHHPTHR (VHH)
VHH: EVQLVESGGGLVQAGGSLRLSCAASGNIFANNIMGWYRQPPGKEREFVAHVSHDGDSMYAVSVKGRFAISRKDATNLYLQMNSLKPEDTAIYFCRLLNIPTQGRMEGFWGQGTQVTVSS
modifications: C-terminus sortagged to a GGG-probe (AlexaFluor647, tetramethylrhodamine or biotin-azide)
notes: The label depends on the assay; also called VHH22A3; 22A3

binding result (human PTHR2): no binding (tested: 100 nM)
B3: VHHGFP (VHH)
VHH: QVQLQESGGALVQPGGSLRLSCAASGFPVNRYSMRWYRQAPGKEREWVAGMSSAGDRSSYEDSVKGRFTISRDDARNTVYLQMNSLKPEDTAVYYCNVNVGFEYWGQGTQVTVSS
modifications: C-terminus sortagged to a GGG-probe (AlexaFluor647 or biotin-azide)
notes: also called VHH Enhancer; VHH-enhancer
